B1: PDZK1 (parent)
chain: QKEQGLSDNILSPVMNGGVQTWTQ

Variants of: B1
Assay: protein stability index of a GFP-peptide fusion (GPS, HEK-293T) (PSI 1-6); higher = more stable
Details: c terminus: a fixed tail appended
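Note: lentivirally expressed fusions sorted by FACS into six bins by GFP to DsRed ratio, PSI derived from sequencing read proportions per bin multiplied by bin number.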

Protein stability index of substitutions, site by site:
V14: N 2.77; I 2.4; T 2.93; R 2.64; Q 2.9; G 1.5; C 3.74; S 2.91; M 2.65; E 2.78; A 3.29; P 2.47; H 2.46; K 2.54; Y 1.94
N16: F 2.61; C 2.75; D 3.71; H 2.81; E 3.41
N9: I 2.88; F 1.86; A 2.67; T 2.56; D 3.45; S 2.75; Y 1.78; V 2.38; G 2.56; M 2.74; R 2.05; C 2.67; H 2.34; L 2.21; E 3.25; Q 2.5; K 1.8
Q4: Y 1.98; W 1.85
L6: W 2.56; Q 3.92; T 3.27; M 2.12; E 3.65; P 3.03; A 2.96; C 2.98; K 4.46; G 2.61; F 1.87; Y 2.49; N 3.29; H 3.12; R 3.71; D 2.65
S12: D 3.84; H 1.74; N 3.27; F 2.76; A 2.58; W 1.95; T 2.36; I 3.58; Y 2.83; P 3.76; M 2.22; G 3.21; K 2.18
I10: C 3.03; E 3.89; G 2.83; V 2.56; F 2.04; Y 2.6; A 2.89; N 3.43; Q 3.34; K 3.02; H 2.96; R 2.35; M 2.67
P13: K 2.47; F 1.56; T 2.34; H 1.96; S 2.37; C 1.87; V 2.41; N 3.05; R 2.09; Q 2.5; A 2.06; I 1.59; Y 1.9
L11: Q 2; K 1.64; W 2.33; I 1.89; M 3.25; Y 2.5; C 2.63; P 2.48; H 2.75; E 3.97; V 3.62; F 2.13; A 3.47; R 2.73
S7: Y 2.12; A 2.51; E 3.43; Q 2.13; D 2.54; M 2.68; C 3.27; T 2.09; F 2; I 2.48; N 2.77; K 2.18; P 3.36; G 3.19
G5: D 2.85; N 2.7; H 1.98; T 2.92; C 3.57; M 1.99; S 1.87; Y 1.66; W 2.29; A 2.4; F 2.44; P 3.15; E 2.82; R 2.7; Q 2.7; I 2.48
M15: Y 2.44; N 2.85; F 1.87; R 2.24; C 1.97; A 1.84; T 2.97; D 3.02; E 3.69; Q 2.46; I 2.79; S 2.21; H 2.51
D8: C 1.51; I 2.05; K 2.1; L 2.73; R 2.59; P 2.34; F 1.1; N 2.68; V 2.29; S 2.34; E 3.04; W 2.4; M 1.92; T 2.39; Y 2.15; G 3.29
